From patent publication US20170145086A1 (VISTERRA, published 2017)
Where “and” joins values, the source holds several entries; their conditions need not be identical. Equal values may be shown once. One block for each binder: values may come before it.

Experiments:
[1] = molecular target: T1, HA-GCN4 hAPRIL (amino acid residues 105-250) (human, UniProt O75888 105-250); assay: indirect ELISA on HA-GCN4 human APRIL, 3-parameter fit
T1 construct: Bought (R&D Systems); also called HA-tagged GCN4 human APRIL; HA-GCN4-huAPRIL; not shown: N-terminal HA tag; GCN4 isoleucine zipper oligomerization domain
T1 sequence: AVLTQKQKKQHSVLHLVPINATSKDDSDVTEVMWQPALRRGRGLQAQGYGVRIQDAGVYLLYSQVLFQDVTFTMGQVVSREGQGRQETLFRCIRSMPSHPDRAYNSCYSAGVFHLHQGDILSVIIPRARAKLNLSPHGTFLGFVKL
Procedure: FIG. 5 depicts the binding of anti-APRIL antibodies to human APRIL. Relative binding of select anti-APRIL antibodies was measured by indirect ELISA. Select antibodies based on prior hybridoma screening were recombinantly produced (based on immunoglubin VH and VL gene sequencing) as described. HA-tagged GCN4 human APRIL R&D Systems was used as source of APRIL. Binding data was analyzed by non-linear regression using a three parameter fit.
(§1) Purified antibodies were further characterized for APRIL binding, APRIL species cross reactivity (human APRIL vs. mouse APRIL), and receptor blocking activity using TACI-Fc. For binding, an APRIL-based indirect ELISA was used to determine by first approximation the relative affinity of purified anti-APRIL antibodies to either human APRIL or mouse APRIL. ELISA method was as generally described above. […] Blocking and wash steps were completed as described. Binding of anti-APRIL antibodies to APRIL was quantified using an 8 point dilution of test antibody that spanned over a four log scale. Antibody binding to APRIL was detected using a rabbit anti-mouse IgG (H+L)-HRP conjugate (Jackson ImmunoResearch Laboratories). Antibody binding data was analyzed by non-linear regression analysis using a 3 parameter fit to determine max binding and apparent EC₅₀ values. […] Mouse specific antibody Apry-1-1 (Adipogen) was likewise used for quantification of antibody binding to mouse APRIL.

[2] = molecular target: T1, HA-GCN4 hAPRIL (amino acid residues …); assay: blocking ELISA; blocked: human APRIL binding to human BCMA-Fc; design: concentration or dose not given beside the values
Procedure: (§2) Recombinant TACI-Fc or BCMA-Fc was coated on 96 well plates in 0.1 M carbonate-bicarbonate buffer (pH 9.6), overnight at 4° C. Plates were washed three times with 1×PBST (PBS+0.025% Tween 20) followed by blocking with 1% BSA in 1×PBS, 37° C. for 1 hour. All subsequent wash steps were carried out with 1×PBST. To assess antibody blocking, either 15 ng/mL or 50 ng/mL HA-GCN4-huAPRIL was preincubated with varying antibody concentrations ranging from 0.03-30 μg/mL in binding buffer comprised of 1% BSA and 0.025% Tween-20 in 1×PBS. Preincubation was carried out at 30° C. for 1 hour with mixing. Antibody-APRIL premix with 50 ng/mL APRIL or 15 ng/mL APRIL was then added to TACI-Fc coated or BCMA-Fc coated plates, respectively, and incubated for an additional hour at 30° C. HA-tagged APRIL binding to either receptor was quantified using a goat polyclonal anti-HA tag-HRP antibody (Abcam) added at a 1:10000 dilution followed by colorimetric development using 100 μl/well of freshly prepared TMB substrate (KPL) carried out for up to 30 minutes at room temperature before quenching enzymatic reaction by the addition of 1N sulfuric acid. ELISA signal was quantified by absorbance at 450 nm. ELISA data was analyzed by non-linear regression. IC₅₀ values were calculated based on a 4 parameter fit of antibody titration curves. […] Non-blocking antibodies Aprly-1 or Aprly-5 (Enzo Biosciences) were used as negative controls. Mouse specific, blocking antibody aprily-1-1 (Adipogen) was generally used as a positive control in experiments using mouse APRIL (HA-GCN4-mAPRIL).

[3] = molecular target: T1, HA-GCN4 hAPRIL (amino acid residues …); assay: blocking ELISA; blocked: human APRIL binding to human TACI-Fc; design: concentration or dose not given beside the values
Procedure: as §2

[4] = molecular target: T2, HA-GCN4 mAPRIL (amino acid residues 96-241) (mouse, UniProt Q9D777 96-241, Assembles as a homotrimer through the GCN4 zipper; one protomer is given.); assay: blocking ELISA; blocked: mouse APRIL binding to human BCMA-Fc
T2 construct: Bought (R&D Systems); also called HA-tagged mouse APRIL (R&D Systems); recombinant mouse APRIL; not shown: N-terminal HA tag and GCN4 isoleucine-zipper trimerisation domain, with any linker, of the bought R&D Systems protein
T2 sequence: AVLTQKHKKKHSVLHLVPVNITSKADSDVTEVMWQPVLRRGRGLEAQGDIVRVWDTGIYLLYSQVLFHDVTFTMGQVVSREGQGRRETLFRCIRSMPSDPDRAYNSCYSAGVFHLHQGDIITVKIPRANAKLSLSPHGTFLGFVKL
Procedure: Recombinant TACI-Fc or BCMA-Fc was coated on 96 well plates in 0.1 M carbonate-bicarbonate buffer (pH 9.6), overnight at 4° C. Plates were washed three times with 1×PBST (PBS+0.025% Tween 20) followed by blocking with 1% BSA in 1×PBS, 37° C. for 1 hour. All subsequent wash steps were carried out with 1×PBST. To assess antibody blocking, either 15 ng/mL or 50 ng/mL HA-GCN4-huAPRIL was preincubated with varying antibody concentrations ranging from 0.03-30 μg/mL in binding buffer comprised of 1% BSA and 0.025% Tween-20 in 1×PBS. Preincubation was carried out at 30° C. for 1 hour with mixing. Antibody-APRIL premix with 50 ng/mL APRIL or 15 ng/mL APRIL was then added to TACI-Fc coated or BCMA-Fc coated plates, respectively, and incubated for an additional hour at 30° C. HA-tagged APRIL binding to either receptor was quantified using a goat polyclonal anti-HA tag-HRP antibody (Abcam) added at a 1:10000 dilution followed by colorimetric development using 100 μl/well of freshly prepared TMB substrate (KPL) carried out for up to 30 minutes at room temperature before quenching enzymatic reaction by the addition of 1N sulfuric acid. ELISA signal was quantified by absorbance at 450 nm. ELISA data was analyzed by non-linear regression. IC₅₀ values were calculated based on a 4 parameter fit of antibody titration curves. […]

[5] = molecular target: T1, HA-GCN4 hAPRIL (amino acid residues …); assay: blocking ELISA, 4-parameter fit; blocked: human APRIL binding to human BCMA-Fc
Procedure: as §2

[6] = molecular target: T1, HA-GCN4 hAPRIL (amino acid residues …); assay: blocking ELISA; blocked: human APRIL binding to BCMA-Fc
Procedure, shortened: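 HA-GCN4-tagged human APRIL (15 ng/mL) preincubated 1 h at 30 °C with antibody (0.03–30 μg/mL), then added 1 h at 30 °C to plates coated with BCMA-Fc. Bound APRIL detected with anti-HA-HRP/TMB at 450 nm; IC₅₀ from 4-parameter fit of antibody titration curves.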

[7] = molecular target: T1, HA-GCN4 hAPRIL (amino acid residues …); assay: indirect ELISA on human APRIL; row printed 4504, legend paragraph 738 says 4540
[8] = molecular target: T1, HA-GCN4 hAPRIL (amino acid residues …); assay: indirect ELISA on coated HA-GCN4 human APRIL; EC50 from non-linear regression
Text: as §1

- EC50 [1]: 0.058 µg/mL and 0.392 nM
- % Inhibition [2]: 35%
- % Inhibition [3]: 81%
- IC50 (read off the curve) [4]: ~0.3 µg/mL
- IC50 [5]: 0.68 nM
B1: monoclonal antibody 3530 (antibody, mouse IgG2, V domains shown)
VH: QVQLQQSGAELVRPGASVKLSCKASGYTFTDHEMHWVRQTPVHGLEWIGVIDPDTGDTTYNQKFKGKATLTADKSSSTAYMDLRSLTSEDSAVFYCTRWTGGDYWGHGTTLTVSS
VL: DAVMTQTPLSLSVTIGQPASISCKSSQSLLYSDGKTYLNWFQQRPGQSPKRLMYQVSKLDPGIPDRFSGSGSETDFTLKISRVEAEDLGVYYCLQGTYYPYTFGSGTKLEIK

- IC50 [6]: 0.67 nM
- Relative Activity (normalised to 2419) [6]: 2.85
- EC50 [7]: 1.39 pM
B2: monoclonal antibody 4540 (antibody, V domains shown)
VH: QVQLQQSGPELVKPGASVKISCKASGYTFADYYINWVKQRPGQGLEWIGWIFPGSGSTYYNEKFKGKATLTVDKSSSTAYMLLSSLTSEDSAVYFCARGDSGRAMDYWGQGTSVTVSS
VL: DIQMTQSPSSLSASLGGKVTITCKASQDINKYIAWYQHKPGKGPRLLIHYTSTLQSGIPSRFSGSGSGRDYSFSISNLEPEDNATYYCLQYDNLLTFGAGTKLELK
notes: mouse-derived

- EC50 [1]: 0.0126 µg/mL and 0.085 nM
- EC50 [8]: < 0.2 nM
- % Inhibition [2]: 100%
- % Inhibition [3]: 91%
- IC50 [5]: 0.22 nM
B3: monoclonal antibody 2218 (antibody, mouse IgG2, V domains shown)
VH: DVQLQESGPGLVKPSQSLSLTCSVTGYSITSGYYWNWIRQFPGNKLEWMGYISYDGYNNYNPSLKNRISITRDTSKNQFFLKLNSVTTEDTATYYCANYYDYEDWYFGVWGTGTTVTVSS
VL: DIVLTQSPASLAMSLGKRATISCRASESVSIIGTNSIHWYQQKPGQPPKLLIYHASNLETGVPARFSGSGSRTDFTLTIDPVEEDDVAIYYCLQSRKIPYTFGGGTKLEIK
